In patent US11820970B2, “High throughput protein-protein interaction screening in yeast liquid culture” (University of Washington, priority 2016, dated 2023):

Assays:
Assay in all cases: Batched (one-pot) yeast mating assay, barcode sequencing
Format in all cases: cell-based
BclW = biological target: T1, BclW (Homo sapiens, UniProt Q92843); conditions: vs BclW
T1 sequence (Q92843 1-193): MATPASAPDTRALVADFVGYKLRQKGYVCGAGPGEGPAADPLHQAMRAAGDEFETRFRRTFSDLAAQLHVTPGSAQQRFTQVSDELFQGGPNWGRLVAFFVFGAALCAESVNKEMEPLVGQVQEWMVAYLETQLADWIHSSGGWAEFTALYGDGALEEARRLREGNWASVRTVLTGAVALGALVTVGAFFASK
Description: (§1) For a many-to-many (also see Example 6) batched mating assay, multiple haploid yeast strains of each mating type are combined in a fresh 3 mL YPD culture. The recombinant MATa yeast strains are added in equal concentrations for a total density of 100 cells/μL and the recombinant MATalpha yeast strains are added in equal concentrations for a total density of 600 cells/μL. After 6 hours of growth, hygromycin is added at 100 ng/μL and β-estradiol (PE) is added at 200 ng/μL. 20 hours after the initial culture inoculation, 1 mL of cells are pelleted. 2 μL of cells are removed from the pellet, lysed with 0.2% SDS, spun down to remove all cellular debris, and diluted in water. The lysate is then used as a template for a PCR with standard primers containing overhangs for next generation sequencing and the PCR product, expected to be 650 bases, is purified from a gel slice. Paired-end next generation sequencing is then performed. The frequency that a particular pair of barcodes is observed relative to the total number of reads provides a relative measure for the number of matings that were caused by the SAP pair associated with those two particular barcodes.
(§2) LIBRARY MATING ASSAYS: For library mating assays in which each isogenic strain was constructed individually and the barcode associated with each synthetic adhesion protein was determined with Sanger sequencing, one or both of the isogenic haploid strains from a one-to-one mating were replaced with a library of strains, all of the same mating type, displaying unique barcoded synthetic adhesion proteins. Each haploid strain in the library is individually grown to saturation, evaluated for surface expression strength as described previously, and mixed in equal volumes. 2.5 μL, if a MATa library, or 5 μL, if a MATalpha library, were then added to a mating as before. Following a 17 hour incubation, 100 μL were added to 50 mL of YPD with […] hygromycin and 100 nM β-estradiol (many-to-many matings only). After growing to saturation, cells were harvested by centrifugation, and lysed by heating to 70° C. for 5 min in 200 mM LiOAc and 1% SDS. Cellular debris was removed and incubated at 37° C. for 4 hours with 0.05 mg/mL RNase A. An ethanol precipitation was then performed to purify and concentrate the genomic DNA. A primary qPCR is performed to amplify the barcode region with standard adaptors and the PCR product is used as a template for a secondary qPCR to attach an index barcode and standard Illumina adaptors. This fragment is gel extracted, quantified with a Qubit and analyzed on a MiSeq next generation sequencer.
(§3) One-pot protein library characterization. A barcoding and recombination scheme was developed for the analysis of whole protein interaction networks in a single pot. Single MATa and MATα parent strain, yNGYSDa and yNGYSDα, were constructed and barcoded SAP cassettes were transformed into the strains. In addition to the knockout of Sag1 in both parent strains and complementary lysine and leucine markers, yNGYSDa contains a CRE recombinase expression cassette with an inducible promoter, pZ4. yNGYSDα constitutively expresses ZEV4, an activator of the pZ4 promoter with an estradiol binding domain for nuclear localization. SAP cassettes were assembled in one of two standardized vectors, pNGYSDa or pNGYSDα, for integration into the corresponding yeast parent strain. In addition to the surface expression cassette, each vector backbone contains a mating type specific florescent reporter cassette, a randomized ten-nucleotide barcode, a mating type specific primer binding site, and a lox recombination site. Upon mating, the addition of β-Estradiol (βE) induces CRE recombinase expression in diploid cells, consolidating the barcodes from each haploid chromosome so that next-generation sequencing can be used to count the frequency of interacting SAP pairs (FIG. 16A). […]

Bfl1 = biological target: T2, Bfl1 (Homo sapiens, UniProt Q16548); conditions: vs Bfl1
T2 sequence (Q16548 1-175): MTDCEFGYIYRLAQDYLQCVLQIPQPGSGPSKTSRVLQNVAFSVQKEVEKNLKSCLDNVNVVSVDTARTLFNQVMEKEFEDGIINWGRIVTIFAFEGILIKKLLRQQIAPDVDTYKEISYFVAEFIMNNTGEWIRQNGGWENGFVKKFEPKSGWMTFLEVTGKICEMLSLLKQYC
Description: as §1, §2, §3

Bcl2 = Bcl2 (Homo sapiens, UniProt P10415); conditions: vs Bcl2
Description: as §1, §2, §3

Bcl2, sequence (P10415 whole entry, species assumed): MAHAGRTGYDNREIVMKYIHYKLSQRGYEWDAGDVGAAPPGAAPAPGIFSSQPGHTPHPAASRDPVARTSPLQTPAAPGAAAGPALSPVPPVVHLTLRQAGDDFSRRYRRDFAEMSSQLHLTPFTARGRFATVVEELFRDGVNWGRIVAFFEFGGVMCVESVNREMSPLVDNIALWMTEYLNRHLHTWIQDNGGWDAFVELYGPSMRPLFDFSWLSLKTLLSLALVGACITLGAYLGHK

binding in batched mating (interaction profile, in words) (BclW) | binding in batched mating (interaction profile, in words) (Bfl1) | binding in batched mating (interaction profile, in words) (Bcl2) | Substance
nonspecifically | nonspecifically | nonspecifically | Puma: natural BH3 domain peptide binder of Bcl2 family proteins (EEQWAREIGAQLRRMADDLNAQYERR)
 | high specificity |  | Noxa: natural BH3 domain peptide binder of Bcl2 family proteins (PAELEVECATQLRRFGDKLNFRQKLL)
nonspecifically | nonspecifically | nonspecifically | Bim: natural BH3 domain peptide binder of Bcl2 family proteins
